Results taken from patent publication US6632621B1, “G protein-coupled receptor-like receptors and modulators thereof” (priority 1999, dated 2003).
Values belong to the molecule of their own block, whether it stands above or below them. Where a SMILES comes first, the peptide text is derived from it. Where no end group is shown, it is not given here. [ ]: non-standard residue; d: D form. Tyr(3-I) = N[C@@H](Cc1ccc(O)c(I)c1)C(=O)O; Nle = CCCC[C@H](N)C(=O)O

Experiments:
CEGPCR19.2 = CEGPCR19.2 (Caenorhabditis elegans, UniProt H2KZY4); assay: calcium mobilization assay (FLIPR), transiently transfected CHO cells, CEGPCR19.2; format: cell-based, C. elegans; details: Table 13; peptides at 10 μM
Sequence of CEGPCR19.2 (H2KZY4 entry or part of it): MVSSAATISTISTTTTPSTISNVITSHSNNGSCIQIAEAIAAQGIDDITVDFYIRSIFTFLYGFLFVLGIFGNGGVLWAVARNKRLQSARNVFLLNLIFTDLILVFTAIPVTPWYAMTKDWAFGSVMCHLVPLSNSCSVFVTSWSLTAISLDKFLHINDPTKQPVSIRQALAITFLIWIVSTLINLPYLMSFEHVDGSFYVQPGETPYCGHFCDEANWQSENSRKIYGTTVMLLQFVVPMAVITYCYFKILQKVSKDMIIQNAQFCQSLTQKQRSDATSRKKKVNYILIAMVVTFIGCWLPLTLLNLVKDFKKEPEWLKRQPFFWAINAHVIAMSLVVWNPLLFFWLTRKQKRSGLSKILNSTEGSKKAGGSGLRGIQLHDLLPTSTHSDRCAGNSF
Experimental: Changes in intracellular calcium levels are another recognized indicator of […] receptor activity, and such assays can be employed to assay for modulators of GPCR-like receptor activity. For example, CHO cells stably transfected with a GPCR-like receptor expression construct are plated at a density of 4×10^4 cells/well in Packard black-walled 96-well plates specially designed to isolate fluorescent signals to individual wells. The cells are incubated for 60 minutes at 37° C. in modified Dulbecco's PBS (D-PBS), containing 36 mg/L pyruvate and 1 g/L glucose with the addition of 2.5 mM probenecid (Sigma Chemical Co.) and one of four calcium indicator dyes (Fluo3™ AM, Fluo4™ AM, Calcium Green™-1 AM, or Oregon Green™ 488 BAPTA-1 AM) at a concentration of 4 μM. Plates are washed once with modified D-PBS […] 1% fetal bovine serum and incubated for 10 minutes at 37° C. to remove residual dye from the cellular membrane. In addition, a series of washes with modified D-PBS is performed immediately prior to activation of the calcium response.
Calcium response is initiated by the addition of one or more candidate receptor agonist compounds, or a positive control such as a calcium ionophore A23187 (10 μM), or ATP (4 μM). Fluorescence is measured by Molecular Device's FLIPR with an argon laser, excitation at 488 nm. […] Basal fluorescence of cells was measured for 20 seconds prior to addition of agonist, ATP, or A23187, and was subtracted from the response signal. The calcium signal is measured for approximately 200 seconds, taking readings every two seconds. […]
This appears especially useful for the assessment of possible activation of orphan GPCRs (i.e., GPCRs having unknown functions and unknown signaling pathways). […] Because the GTPγS assay is known to poorly recognize GPCRs coupled to the Gq class of G-proteins, a Ca^+2 mobilization assay, based on a FLIPR readout, was used as well to evaluate putative Gq-couplcd orphan GPCRs transiently transfected into CHO cells. […] Without the temperature downshift, expression of functional receptor could not be detected. […]

CEGPCR7 receptor = target: T1, CEGPCR7 receptor (Caenorhabditis elegans, UniProt Q18534); assay: [35S]GTPγS binding assay, membranes of CHO cells transfected with CEGPCR7; format: biochemical, C. elegans
T1 construct: Each of the 22 putative GPCR-like receptor clones appeared to contain a full-length coding region; expressed in transfected cells; host or cells: CHO-K1, transient, pCR3.1 clone, 37 to 28 C temperature shift
T1 sequence (Q18534 1-457): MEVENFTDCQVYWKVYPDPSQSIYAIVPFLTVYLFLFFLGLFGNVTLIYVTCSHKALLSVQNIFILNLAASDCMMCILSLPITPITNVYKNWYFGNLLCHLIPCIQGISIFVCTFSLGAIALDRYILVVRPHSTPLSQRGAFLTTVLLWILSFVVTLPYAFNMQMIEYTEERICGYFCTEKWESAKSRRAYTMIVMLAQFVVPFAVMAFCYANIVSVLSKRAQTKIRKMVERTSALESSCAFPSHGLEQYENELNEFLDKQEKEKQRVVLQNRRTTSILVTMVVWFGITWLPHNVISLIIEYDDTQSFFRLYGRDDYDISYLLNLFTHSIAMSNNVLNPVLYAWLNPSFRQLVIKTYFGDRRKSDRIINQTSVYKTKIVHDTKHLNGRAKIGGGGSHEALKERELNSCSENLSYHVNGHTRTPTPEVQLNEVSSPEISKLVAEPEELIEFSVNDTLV
Experimental: (§1) Recombinant pCR3.1 clones encoding invertebrate GPCR-like receptors were transformed into wild-type CHO-K1 cells and functional expression was achieved using a temperature-shift incubation protocol. The CHO-K1 cells were cultured at 37° C. in a humidified atmosphere of 5% CO2 in air in DMEM medium supplemented with 10% heat-inactivated fetal bovine serum (i.e., FBS), 10 μg/ml gentamicin, and 0.1 mM nonessential amino acids to give complete DMEM medium. Additionally, for incubations at temperatures lower than 37° C., the medium was fortified with 10 mM HEPES (pH 7.4). Cells were transfected with recombinant pCR3.1 clones containing GPCR-like receptor DNAs, using LipofectAMINE PLUS™, essentially according to the manufacturer's instructions. […] In separate plastic tubes, PLUS (20 μl/plate; Life Technologies) was added to 0.75 ml/plate of recombinant plasmid DNA in OptiMEM (5 μg/plate; Gibco/BRL—Life Technologies), mixed and incubated at room temperature for 15 minutes. Separately, LipofectAMINE (30 μl/plate) was mixed with 0.75 ml OptiMEM and added to the pre-complexed DNA/PLUS mixture and incubated at room temperature for 15 minutes. The culture medium was then replaced with serum-free transfection medium (DMEM, 5 ml/plate). The DNA-PLUS-LipofectAMINE complex was then added to the plates (1.5 ml/plate) and mixed gently into the medium, followed by a 3 hour incubation at 37° C. in 5% CO2. At this time, the medium was supplemented with complete DMEM medium containing 20% FBS (6.5 ml/plate) and incubation was continued at 37° C. in 5% CO2. After a total of 24 hours at 37° C. in 5% CO2, the medium was replaced with complete DMEM medium fortified with 10 mM HEPES (10 ml/plate) and the cells were moved to an incubator maintained at 28-30° C. in a humidified atmosphere of 5% CO2 in air. The incubation continued for an additional 24 hours, typically at the lower temperature indicated above. A plasmid encoding Green Fluorescent Protein (i.e., GFP, 4 μg/plate) was used for transient GFP expression in CHO-K1 cells to estimate the transfection yields under the same conditions as used for GPCR-like receptor polynucleotides.
(§2) To assess expression, membranes were prepared from transfected CHO-K1 cells. Transfected cells were washed once with ice-cold Dulbecco's phosphate-buffered saline (i.e., PBS), 5 ml per 10 cm plate, and the cells were scraped into 5 ml of the same buffer. Cell suspensions from multiple plates were combined and centrifuged at 500×g for 10 minutes at 4° C. The cell pellet was reconstituted in ice-cold TEE (25 mM Tris, pH 7.4, 5 mM EGTA, 5 mM EDTA). Convenient aliquots were snap-frozen in liquid nitrogen and stored at −70° C. After thawing, the cells were homogenized and centrifuged at 500×g for 5 minutes at 4° C. to pellet nuclei and unbroken cells. Tile supernatant was centrifuged at 47,000×g for 30 minutes at 4° C. The membrane pellet was washed once with TEE, resuspended in 20 mM HEPES, pH 7.4, 100 mM NaCl, 10 mM MgCl2, 1 mM EDTA (assay buffer), distributed into aliquots of 0.5-1.0 ml, and frozen in liquid nitrogen. Membrane aliquots were stored at −70° C. Membrane protein concentration was determined using the BCA Protein Assay Reagent from Pierce (Rockford, Ill.), with bovine serum albumin (i.e., BSA) as a standard.
Aliquots of cell membranes prepared as described above and stored at −70° C. were thawed, homogenized, and diluted into buffer containing 20 mM HEPES, pH 7.4, 10 mM MgCl2, 1 mM EDTA, and 100 mM NaCl at a concentration of 10-50 μg/ml.

CEGPCR5 = target: T2, CEGPCR5 (Caenorhabditis elegans, UniProt Q18179); assay: [35S]GTPγS binding assay, CEGPCR5 expressed in CHO cells; format: biochemical, C. elegans; details: for EC50: EC50 range
T2 sequence (Q18179 1-402): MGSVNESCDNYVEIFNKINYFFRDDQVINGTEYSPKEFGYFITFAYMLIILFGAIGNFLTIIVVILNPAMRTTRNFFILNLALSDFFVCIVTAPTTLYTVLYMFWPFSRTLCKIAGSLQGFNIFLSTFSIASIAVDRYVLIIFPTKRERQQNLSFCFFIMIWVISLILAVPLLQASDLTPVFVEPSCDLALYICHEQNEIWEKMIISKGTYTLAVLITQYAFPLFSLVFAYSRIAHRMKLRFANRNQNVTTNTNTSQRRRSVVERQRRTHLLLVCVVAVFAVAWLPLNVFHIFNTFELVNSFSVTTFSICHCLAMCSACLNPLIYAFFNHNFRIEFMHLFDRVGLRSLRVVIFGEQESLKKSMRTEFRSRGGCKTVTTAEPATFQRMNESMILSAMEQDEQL
Experimental: as §1, §2
Aliquots of cell membranes prepared as described above and stored at −70° C. were thawed, homogenized, and diluted into buffer containing 20 mM HEPES, pH 7.4, 10 mM MgCl2, 1 mM EDTA, and 100 mM NaCl at a concentration of 10-50 μg/ml. Reaction mixtures were prepared in 96-well polypropylene plate, Nunc. Twenty microliters of a 10× putative modulator compound (including but not limited to potential peptide ligands) solution or a water control (20 μl), 18.2 µM GDP (0.11 ml, 10 μM final concentration), and a membrane preparation were mixed and placed on ice. The modulator/ligand-GDP-membrane mixtures were incubated for 20 minutes at room temperature on a shaking platform and then placed on ice.

CEGPCR4 = target: T3, CEGPCR4 (C. elegans); assay: competition binding assay, CEGPCR4/CHO membranes; IC50 range printed once for block r19-r25
T3 construct: Expressed in CHO cells; also called CEGPCR4 receptor; CEGPCR4/CHO membranes
T3 chain: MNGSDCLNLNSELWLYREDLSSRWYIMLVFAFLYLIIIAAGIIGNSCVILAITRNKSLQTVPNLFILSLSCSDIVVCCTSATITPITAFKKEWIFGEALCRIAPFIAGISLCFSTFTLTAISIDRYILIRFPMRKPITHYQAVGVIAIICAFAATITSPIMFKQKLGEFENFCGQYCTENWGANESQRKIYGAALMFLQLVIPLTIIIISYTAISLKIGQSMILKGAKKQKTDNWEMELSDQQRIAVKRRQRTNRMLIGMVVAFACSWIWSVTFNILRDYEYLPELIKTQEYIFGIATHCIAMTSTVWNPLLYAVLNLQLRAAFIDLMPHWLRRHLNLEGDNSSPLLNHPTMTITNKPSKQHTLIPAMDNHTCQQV

activity at single concentration (CEGPCR19.2): peptides active
Molecule: KPNFIRF-NH2

activity at single concentration (CEGPCR19.2): peptides active
Molecule: SQPNFLRF-NH2

Molecule: CC(C)C[C@H](NC(=O)CNC(=O)[C@@H](N)Cc1ccc(O)c(I)c1)C(=O)NCC(=O)N1CCC[C@H]1C(=O)N[C@@H](CCCNC(=N)N)C(=O)N1CCC[C@H]1C(=O)N[C@@H](CC(C)C)C(=O)N[C@@H](CCCNC(=N)N)C(=O)N[C@@H](Cc1ccccc1)C(N)=O [[I]Y^0-GLGPRPLRF-NH2] (H-[Tyr(3-I)]GLGPRPLRF-NH2)
EC50 (CEGPCR7 receptor; EC50, single values): 237 nM | EC50 (CEGPCR7 receptor; EC50 range, Table 7, one range for the group of peptides): 200 to 250 nM | EC50 (CEGPCR5): 176 to 273 nM | EC50 (CEGPCR5; Table 9, one range for the group of peptides): 80 to 800 nM | less potent than AF9 (CEGPCR5; ratio of potency): about 200 fold

activity at single concentration (CEGPCR19.2): peptides active
Molecule: LQPNFLRF-NH2

binding result (CEGPCR4): binds
B1: ILNleRF-NH2 (peptide)
peptide: IL[Nle]RF-NH2
modifications: N-terminus assumed
SMILES: CCCC[C@H](NC(=O)[C@H](CC(C)C)NC(=O)[C@@H](N)[C@@H](C)CC)C(=O)N[C@@H](CCCNC(=N)N)C(=O)N[C@@H](Cc1ccccc1)C(N)=O
notes: synthetic

binding result (CEGPCR4): binds
B2: KPNFLRF-NH2 (peptide)
peptide: KPNFLRF-NH2
notes: flp1

binding result (CEGPCR4): binds
B3: GNSFLRF-NH2 (peptide)
peptide: GNSFLRF-NH2
notes: also called GNSFLRFamide
